Our source for the koff values is patent US20250215104A1 (WALDEN BIOSCIENCES, published 2025).

Test [1] has as its target T1, human soluble urokinase plasminogen activator receptor (hsuPAR) (human, UniProt Q03405 23-303, limits assumed).
T1 construct: also called human suPAR; rhuPAR-His
The test is described as follows: BLI (Octet) off-rate screen of scFv. For orientation: BLI is a label-free optical method that tracks binding on a fibre tip over time.

Test [2] addresses T2, cynomolgus soluble urokinase plasminogen activator receptor (cynomolgus suPAR) (cynomolgus, UniProt Q9GK78 23-303, limits assumed).
T2 construct: also called cynomolgus uPAR; cynoPLAUR-His
The test is described as follows: BLI (Octet) off-rate screen of scFv.

T1 sequence (Q03405 23-303 limits assumed): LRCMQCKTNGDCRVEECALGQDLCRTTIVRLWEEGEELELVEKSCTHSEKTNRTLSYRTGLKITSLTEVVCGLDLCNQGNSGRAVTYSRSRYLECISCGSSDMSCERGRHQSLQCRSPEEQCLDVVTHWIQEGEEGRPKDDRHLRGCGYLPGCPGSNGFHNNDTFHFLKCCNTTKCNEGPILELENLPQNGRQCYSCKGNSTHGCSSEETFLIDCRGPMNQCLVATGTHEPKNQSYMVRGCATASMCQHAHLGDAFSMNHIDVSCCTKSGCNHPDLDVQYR
T2 sequence (Q9GK78 23-303 limits assumed): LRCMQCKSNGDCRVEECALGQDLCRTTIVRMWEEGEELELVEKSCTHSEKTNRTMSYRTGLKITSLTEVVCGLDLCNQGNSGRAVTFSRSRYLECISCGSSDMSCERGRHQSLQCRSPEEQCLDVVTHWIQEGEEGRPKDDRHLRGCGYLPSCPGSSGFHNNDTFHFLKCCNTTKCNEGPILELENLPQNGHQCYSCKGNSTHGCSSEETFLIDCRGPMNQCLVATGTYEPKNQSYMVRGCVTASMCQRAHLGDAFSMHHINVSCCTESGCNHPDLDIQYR

B1: suPAR_DB01_H01 (scFv, V domains shown)
VH: QVQLVQSGAEVKKPGASVKVSCKASGDTFTSYYMHWVRQAPGQGLEWMGWIDPENGNTIYDQKFQGRVTMTRDTSTSTVYMELSSLRSEDTAVYYCARGYDVDWFVYWGQGTLVTVSS
VL: DIQMTQSPSSLSASVGDRVTITCSARSSVSYMYWYQQKPGKAPKLLIYRTSNLASGVPSRFSGSGSGTDFTLTISSLQPEDFATYYCQQYHSYPPTFGGGTKVEIK
notes: Screened as scFv
In the case of B1, the koff (in general, the rate constant with which the complex falls apart) is 0.00454 s⁻¹ in test [1] and 0.000122 s⁻¹ in test [2].

B2: suPAR_DB02_A12 (scFv, V domains shown)
VH: QVQLVQSGAEVKKPGASVKVSCKASGYTFTNYYMHWVRQAPGQGLEWMGWIDHENGSTIYAQKFQGRVTMTRDTSTSTVYMELSSLRSEDTAVYYCARGYDMDWFVYWGQGTLVTVSS
VL: DIQMTQSPSSLSASVGDRVTITCSARSSVSYMYWYQQKPGKAPKLLIYRTSNLASGVPSRFSGSGSGTDFTLTISSLQPEDFATYYCQQYHSYPPTFGGGTKVEIK
notes: Screened as scFv
For the molecule B2, the koff in test [1] came to 0.0017 s⁻¹; in test [2] it was 2.26e-05 s⁻¹.

B3: suPAR_DB01_H04 (scFv, V domains shown)
VH: QVQLVQSGAEVKKPGASVKVSCKASGYTFTNYYMHWVRQAPGQGLEWMGWIDPNSGGTNYAQKFQGRVTMTRDTSTSTVYMELSSLRSEDTAVYYCARGYDVDWFVYWGQGTLVTVSS
VL: DIQMTQSPSSLSASVGDRVTITCSARSSVSYMYWYQQKPGKAPKLLIYRTSNLASGVPSRFSGSGSGTDFTLTISSLQPEDFATYYCQQYHSYPPTFGGGTKVEIK
notes: Screened as scFv
Turning to B3, the off-rate constant (koff) is 0.00242 s⁻¹ in test [1] and 0.000225 s⁻¹ in test [2].

B4: suPAR_DB02_B05 (scFv, V domains shown)
VH: QVQLVQSGAEVKKPGASVKVSCKASGYTFTSYYMHWVRQAPGQGLEWMGWIDHENGNTSYAQKFQGRVTMTRDTSTSTVYMELSSLRSEDTAVYYCARGYDVDWFVYWGQGTLVTVSS
VL: DIQMTQSPSSLSASVGDRVTITCRARQSVSYMYWYQQKPGKAPKLLIYRTSNLASGVPSRFSGSGSGTDFTLTISSLQPEDFATYYCQQYHSYPPTFGGGTKVEIK
notes: Screened as scFv
B4: the koff in test [1] amounted to 0.0041 s⁻¹; in test [2] it was 0.000199 s⁻¹.

B5: suPAR_DB01_H07 (scFv, V domains shown)
VH: QVQLVQSGAEVKKPGASVKVSCKASGDTFSNYYMHWVRQAPGQGLEWMGWIDHENGSTIYAQKFQGRVTMTRDTSTSTVYMELSSLRSEDTAVYYCARGYDVDWFVYWGQGTLVTVSS
VL: DIQMTQSPSSLSASVGDRVTITCSARSSVSYMYWYQQKPGKAPKLLIYRTSNLASGVPSRFSGSGSGTDFTLTISSLQPEDFATYYCQQYHSYPPTFGGGTKVEIK
notes: Screened as scFv
Take B5: the dissociation rate constant (koff) in test [1] stood at 0.00138 s⁻¹; in test [2], 0.000219 s⁻¹.

B6: suPAR_DB02_A04 (scFv, V domains shown)
VH: QVQLVQSGAEVKKPGASVKVSCKASGYTFTGYYVHWVRQAPGQGLEWMGWIDHENGNTIYDQKFQGRVTMTRDTSTSTVYMELSSLRSEDTAVYYCARGYDVDWFVYWGQGTLVTVSS
VL: DIQMTQSPSSLSASVGDRVTITCRASSSVSYMYWYQQKPGKAPKLLIYRTSNLASGVPSRFSGSGSGTDFTLTISSLQPEDFATYYCQQYHSYPPTFGGGTKVEIK
notes: Screened as scFv
As to B6, the koff in test [1] is 0.00236 s⁻¹; in test [2], 0.000521 s⁻¹.

B7: suPAR_DB02_B03 (scFv, V domains shown)
VH: QVQLVQSGAEVKKPGASVKVSCKASGYTFIGNYIHWVRQAPGQGLEWMGWIDHENGSTIYDQKFQGRVTMTRDTSTSTVYMELSSLRSEDTAVYYCARGSDVDWFVYWGQGTLVTVSS
VL: DIQMTQSPSSLSASVGDRVTITCSARSSVSYMYWYQQKPGKAPKLLIYRTSNLASGVPSRFSGSGSGTDFTLTISSLQPEDFATYYCQQYHSYPPTFGGGTKVEIK
notes: Screened as scFv
Regarding B7, the values for the koff in test [1] and in test [2] were 0.00088 s⁻¹ and 0.000424 s⁻¹, respectively.

B8: suPAR_DB02_B01 (scFv, V domains shown)
VH: QVQLVQSGAEVKKPGASVKVSCKASGYTFTGHYVHWVRQAPGQGLEWMGWIDHENGNTIYDQKFQGRVTMTRDTSTSTVYMELSSLRSEDTAVYYCARGYDVDWFVYWGQGTLVTVSS
VL: DIQMTQSPSSLSASVGDRVTITCSARQSVSYMYWYQQKPGKAPKLLIYRTSNLASGVPSRFSGSGSGTDFTLTISSLQPEDFATYYCQQYHSYPPTFGGGTKVEIK
notes: Screened as scFv
In the case of B8, the figures for the koff in test [1] and in test [2] were 0.00253 s⁻¹ and 0.000363 s⁻¹, respectively.

B9: suPAR_DB02_A05 (scFv, V domains shown)
VH: QVQLVQSGAEVKKPGASVKVSCKASGDTFTSYYMHWVRQAPGQGLEWMGWIDPENGNTIYAQKFQGRVTMTRDTSTSTVYMELSSLRSEDTAVYYCARGYDVDWFVYWGQGTLVTVSS
VL: DIQMTQSPSSLSASVGDRVTITCSARQSVSYMYWYQQKPGKAPKLLIYRTSNLASGVPSRFSGSGSGTDFTLTISSLQPEDFATYYCQQYHSYPPTFGGGTKVEIK
notes: Screened as scFv
In the case of B9, the koff in test [1] stood at 0.00521 s⁻¹; in test [2], 0.000151 s⁻¹.

B10: suPAR_DB01_H10 (scFv, V domains shown)
VH: QVQLVQSGAEVKKPGASVKVSCKASGYTFTNYYMHWVRQAPGQGLEWMGWIDHENGSTIYAQKFQGRVTMTRDTSTSTVYMELSSLRSEDTAVYYCARGYDVDWFVYWGQGTLVTVSS
VL: DIQMTQSPSSLSASVGDRVTITCSARQSVSYMYWYQQKPGKAPKLLIYRTSNLASGVPSRFSGSGSGTDFTLTISSLQPEDFATYYCQQYHSYPPTFGGGTKVEIK
notes: Screened as scFv
With B10, the results for the koff in test [1] and in test [2] were 0.000603 s⁻¹ and 0.000374 s⁻¹, respectively.

B11: suPAR_DB02_B04 (scFv, V domains shown)
VH: QVQLVQSGAEVKKPGASVKVSCKASGYTFTGHYMHWVRQAPGQGLEWMGWIDHENGNTIYDQKFQGRVTMTRDTSTSTVYMELSSLRSEDTAVYYCARGYDVDWFVYWGQGTLVTVSS
VL: DIQMTQSPSSLSASVGDRVTITCSARSSVSYMYWYQQKPGKAPKLLIYRTSNLASGVPSRFSGSGSGTDFTLTISSLQPEDFATYYCQQYHSYPPTFGGGTKVEIK
notes: Screened as scFv
Regarding B11, the results for the off-rate constant (koff) in test [1] and in test [2] were 0.00477 s⁻¹ and 0.000185 s⁻¹, respectively.

B12: suPAR_DB02_A07 (scFv, V domains shown)
VH: QVQLVQSGAEVKKPGASVKVSCKASGYNIKDYYIHWVRQAPGQGLEWMGWISPDSGVTNYAQKFQGRVTMTRDTSTSTVYMELSSLRSEDTAVYYCARGYDVDWFVYWGQGTLVTVSS
VL: DIQMTQSPSSLSASVGDRVTITCSARQSVSYMYWYQQKPGKAPKLLIYRTSNLASGVPSRFSGSGSGTDFTLTISSLQPEDFATYYCQQYHSYPPTFGGGTKVEIK
notes: Screened as scFv
Regarding B12, the koff in test [1] worked out at 0.00114 s⁻¹; in test [2], 0.000352 s⁻¹.

B13: suPAR_DB02_A03 (scFv, V domains shown)
VH: QVQLVQSGAEVKKPGASVKVSCKASGYTFTDYYIHWVRQAPGQGLEWMGWIDPENGNTIYAQKFQGRVTMTRDTSTSTVYMELSSLRSEDTAVYYCARGYDVDWFVYWGQGTLVTVSS
VL: DIQMTQSPSSLSASVGDRVTITCSARSSVSYMYWYQQKPGKAPKLLIYRTSNLASGVPSRFSGSGSGTDFTLTISSLQPEDFATYYCQQYHSYPPTFGGGTKVEIK
notes: Screened as scFv
Take B13: the koff in test [1] turned out to be 0.00198 s⁻¹; in test [2], 0.000341 s⁻¹.

B14: suPAR_DB02_A11 (scFv, V domains shown)
VH: QVQLVQSGAEVKKPGASVKVSCKASGGTFSSYYMHWVRQAPGQGLEWMGWIDPSNGNTIYDQKFQGRVTMTRDTSTSTVYMELSSLRSEDTAVYYCARGYDVDWFVYWGQGTLVTVSS
VL: DIQMTQSPSSLSASVGDRVTITCSARQSVSYMYWYQQKPGKAPKLLIYRTSNLASGVPSRFSGSGSGTDFTLTISSLQPEDFATYYCQQYHSYPPTFGGGTKVEIK
notes: Screened as scFv
Take B14: the off-rate constant (koff) turned out to be 0.00447 s⁻¹ in test [1] and 0.000232 s⁻¹ in test [2].

B15: suPAR_DB02_A08 (scFv, V domains shown)
VH: QVQLVQSGAEVKKPGASVKVSCKASGYTFTTYYMHWVRQAPGQGLEWMGWIDPENGNTIYAQKFQGRVTMTRDTSTSTVYMELSSLRSEDTAVYYCARGYDVDWFVYWGQGTLVTVSS
VL: DIQMTQSPSSLSASVGDRVTITCSARSSVSYMYWYQQKPGKAPKLLIYRTSNLASGVPSRFSGSGSGTDFTLTISSLQPEDFATYYCQQYHSYPPTFGGGTKVEIK
notes: Screened as scFv
B15: the values for the koff in test [1] and in test [2] were 0.00363 s⁻¹ and 7.98e-05 s⁻¹, respectively.

B16: suPAR_DB02_A09 (scFv, V domains shown)
VH: QVQLVQSGAEVKKPGASVKVSCKASGYTFTNYYMHWVRQAPGQGLEWMGWIDPEGGSTIYDQKFQGRVTMTRDTSTSTVYMELSSLRSEDTAVYYCARGYDVDWFVYWGQGTLVTVSS
VL: DIQMTQSPSSLSASVGDRVTITCSARQSISYMYWYQQKPGKAPKLLIYRTSNLASGVPSRFSGSGSGTDFTLTISSLQPEDFATYYCQQYHSYPPTFGGGTKVEIK
notes: Screened as scFv
In the case of B16, the koff in test [1] came out at 0.00613 s⁻¹; in test [2] it was 0.000484 s⁻¹.

B17: suPAR_DB01_H06 (scFv, V domains shown)
VH: QVQLVQSGAEVKKPGASVKVSCKASGFNIKDYYMHWVRQAPGQGLEWMGWIDPENGNTIYDQKFQGRVTMTRDTSTSTVYMELSSLRSEDTAVYYCARGYDVDWFVYWGQGTLVTVSS
VL: DIQMTQSPSSLSASVGDRVTITCSARQSISYMYWYQQKPGKAPKLLIYRTSNLASGVPSRFSGSGSGTDFTLTISSLQPEDFATYYCQQYHSYPPTFGGGTKVEIK
notes: Screened as scFv
Turning to B17, the koff is 0.0052 s⁻¹ in test [1] and 0.000129 s⁻¹ in test [2].

B18: suPAR_DB02_A10 (scFv, V domains shown)
VH: QVQLVQSGAEVKKPGASVKVSCKASGYTFTGNYMHWVRQAPGQGLEWMGWIDHENGNTIYDQKFQGRVTMTRDTSTSTVYMELSSLRSEDTAVYYCARGSDVDWFVYWGQGTLVTVSS
VL: DIQMTQSPSSLSASVGDRVTITCSARSSVSYMYWYQQKPGKAPKLLIYRTSNLASGVPSRFSGSGSGTDFTLTISSLQPEDFATYYCQQYHSYPPTFGGGTKVEIK
notes: Screened as scFv
For the molecule B18, the koff in test [1] amounted to 0.00319 s⁻¹; in test [2], 0.00024 s⁻¹.

B19: suPAR_DB01_H03 (scFv, V domains shown)
VH: QVQLVQSGAEVKKPGASVKVSCKASGDTITNYYMHWVRQAPGQGLEWMGWIDTNSGGTQYAQKFQGRVTMTRDTSTSTVYMELSSLRSEDTAVYYCARGYDVDWFVYWGQGTLVTVSS
VL: DIQMTQSPSSLSASVGDRVTITCSARSSVSYMYWYQQKPGKAPKLLIYRTSNLASGVPSRFSGSGSGTDFTLTISSLQPEDFATYYCQQYHSYPPTFGGGTKVEIK
notes: Screened as scFv
Regarding B19, the results for the koff in test [1] and in test [2] were 0.001 s⁻¹ and 0.000677 s⁻¹, respectively.

B20: suPAR_DB01_H05 (scFv, V domains shown)
VH: QVQLVQSGAEVKKPGASVKVSCKASGYTFTGNYVHWVRQAPGQGLEWMGWIDHENGNTIYDQKFQGRVTMTRDTSTSTVYMELSSLRSEDTAVYYCARGYDVDWFVYWGQGTLVTVSS
VL: DIQMTQSPSSLSASVGDRVTITCSARSSVSYMYWYQQKPGKAPKLLIYRTSNLASGVPSRFSGSGSGTDFTLTISSLQPEDFATYYCQQYHSYPPTFGGGTKVEIK
notes: Screened as scFv
As for B20, the koff in test [1] is 0.00152 s⁻¹; in test [2] it was 0.000432 s⁻¹.
